From paper PMC9482650, “Quantitative fragmentomics allow affinity mapping of interactomes” (Nature Communications, 2022)

T1: SYNJ2BP, P57105
T1 sequence (P57105 8-110, limits assumed, looked up): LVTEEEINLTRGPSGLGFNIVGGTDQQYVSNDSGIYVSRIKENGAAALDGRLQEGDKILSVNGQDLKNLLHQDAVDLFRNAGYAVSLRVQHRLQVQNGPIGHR

T2: PDZRN3_1, Q9UPQ7
T2 sequence (Q9UPQ7 244-349, limits assumed, looked up): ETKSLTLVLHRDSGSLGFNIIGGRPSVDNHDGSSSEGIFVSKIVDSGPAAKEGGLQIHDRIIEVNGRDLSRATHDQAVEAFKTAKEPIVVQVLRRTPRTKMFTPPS

T3: MPP2, Q14168
T3 sequence (Q14168 180-250, limits assumed, looked up): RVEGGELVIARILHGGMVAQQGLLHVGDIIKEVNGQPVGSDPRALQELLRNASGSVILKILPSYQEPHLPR

T4: DFNB31_2, Q9P202
T4 sequence (Q9P202 274-371, limits assumed, looked up): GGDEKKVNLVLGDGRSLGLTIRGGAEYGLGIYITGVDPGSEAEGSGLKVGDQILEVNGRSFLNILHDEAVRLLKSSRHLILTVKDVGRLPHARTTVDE

T5: DFNB31_1, Q9P202
T5 sequence (Q9P202 135-233, limits assumed, looked up): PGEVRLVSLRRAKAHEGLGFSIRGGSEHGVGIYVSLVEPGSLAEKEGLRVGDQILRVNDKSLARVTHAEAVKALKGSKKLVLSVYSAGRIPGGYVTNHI

T6: TIAM2, Q8IVF5
T6 sequence (Q8IVF5 885-986, limits assumed, looked up): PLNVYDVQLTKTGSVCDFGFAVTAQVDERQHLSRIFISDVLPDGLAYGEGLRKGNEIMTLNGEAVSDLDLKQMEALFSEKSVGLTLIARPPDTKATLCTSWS

T7: PDZD2_2, O15018
T7 sequence (O15018 329-429, limits assumed, looked up): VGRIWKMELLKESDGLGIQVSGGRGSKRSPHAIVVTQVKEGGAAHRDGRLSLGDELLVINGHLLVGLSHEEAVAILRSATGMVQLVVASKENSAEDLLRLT

T8: GRIP1_2, Q9Y3R0
T8 sequence (Q9Y3R0 145-248, limits assumed, looked up): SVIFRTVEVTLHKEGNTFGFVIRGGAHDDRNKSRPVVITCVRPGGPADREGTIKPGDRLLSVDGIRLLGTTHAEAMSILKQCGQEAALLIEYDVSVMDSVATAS

T9: SNTG1, Q9NSN8
T9 sequence (Q9NSN8 52-150, limits assumed, looked up): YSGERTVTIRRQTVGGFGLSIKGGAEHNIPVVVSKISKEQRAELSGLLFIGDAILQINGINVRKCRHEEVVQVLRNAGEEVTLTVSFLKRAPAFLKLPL

T10: TX1BP3, O14907
T10 sequence (O14907 10-122, limits assumed, looked up): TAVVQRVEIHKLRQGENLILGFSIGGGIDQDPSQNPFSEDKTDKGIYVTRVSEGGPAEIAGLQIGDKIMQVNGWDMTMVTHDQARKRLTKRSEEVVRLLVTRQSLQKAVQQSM

T11: PCLO, Q9Y6V0
T11 sequence (Q9Y6V0 4491-4600, limits assumed, looked up): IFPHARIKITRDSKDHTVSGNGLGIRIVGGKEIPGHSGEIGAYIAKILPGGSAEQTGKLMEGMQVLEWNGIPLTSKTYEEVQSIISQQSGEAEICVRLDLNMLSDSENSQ

T12: PTPN13_1, Q12923
T12 sequence (Q12923 1088-1188, limits assumed, looked up): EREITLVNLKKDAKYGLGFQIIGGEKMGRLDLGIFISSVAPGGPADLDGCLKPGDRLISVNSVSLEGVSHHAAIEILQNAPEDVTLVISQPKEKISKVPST

T13: FRMPD1, Q5SYB0
T13 sequence (Q5SYB0 52-145, limits assumed, looked up): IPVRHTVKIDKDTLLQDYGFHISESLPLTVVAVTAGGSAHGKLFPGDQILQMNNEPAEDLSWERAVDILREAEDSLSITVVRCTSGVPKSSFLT

T14: LRRC7, Q96NW7
T14 sequence (Q96NW7 1440-1537, limits assumed, looked up): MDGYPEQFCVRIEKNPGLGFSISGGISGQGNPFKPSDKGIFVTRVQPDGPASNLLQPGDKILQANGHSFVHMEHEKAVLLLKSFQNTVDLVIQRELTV


Assays:
Experiment in all cases: holdup assay
Set-up in all cases: key: below the threshold = too weak to quantify, mostly under pKd 3.1 to 4
Settings in all cases: plain residues with an end cap or a label only (N-terminal biotin on a linker: ado-ado)
[1] = target: T1, SYNJ2BP, P57105
[2] = target: T2, PDZRN3_1, Q9UPQ7
[3] = target: T3, MPP2, Q14168
[4] = target: Inadl_3, Q8NI35
[5] = target: T4, DFNB31_2, Q9P202
[6] = target: FRMPD2_3, Q68DX3
[7] = target: T5, DFNB31_1, Q9P202
[8] = target: FRMPD4, Q14CM0
[9] = target: DLG5_1, Q8TDM6
[10] = target: T6, TIAM2, Q8IVF5
[11] = target: MAGI1_2, Q96QZ7
[12] = target: T7, PDZD2_2, O15018
[13] = target: CASK, O14936
[14] = target: T8, GRIP1_2, Q9Y3R0
[15] = target: GIPC2, Q8TF65
[16] = target: T9, SNTG1, Q9NSN8
[17] = target: GRIP2_6, Q9C0E4
[18] = target: T10, TX1BP3, O14907
[19] = target: T11, PCLO, Q9Y6V0
[20] = target: T12, PTPN13_1, Q12923
[21] = target: T13, FRMPD1, Q5SYB0
[22] = target: T14, LRRC7, Q96NW7
[23] = target: SNX27, Q96L92

Chain of GRIP2_6, Q9C0E4 (Q9C0E4 648-740): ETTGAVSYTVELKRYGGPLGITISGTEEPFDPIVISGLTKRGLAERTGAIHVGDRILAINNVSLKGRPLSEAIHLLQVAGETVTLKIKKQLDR
Chain of FRMPD4, Q14CM0 (Q14CM0 67-160): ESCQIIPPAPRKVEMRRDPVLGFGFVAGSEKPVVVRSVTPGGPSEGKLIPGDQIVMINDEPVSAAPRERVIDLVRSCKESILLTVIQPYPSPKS
Chain of DLG5_1, Q8TDM6 (Q8TDM6 617-713): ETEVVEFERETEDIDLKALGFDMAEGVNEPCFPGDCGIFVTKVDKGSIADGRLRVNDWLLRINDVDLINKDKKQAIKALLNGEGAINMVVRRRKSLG
Chain of GIPC2, Q8TF65 (Q8TF65 112-203): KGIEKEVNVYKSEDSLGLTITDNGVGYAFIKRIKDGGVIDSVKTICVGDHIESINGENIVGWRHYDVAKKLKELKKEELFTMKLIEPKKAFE
Chain of CASK, O14936 (O14936 487-570): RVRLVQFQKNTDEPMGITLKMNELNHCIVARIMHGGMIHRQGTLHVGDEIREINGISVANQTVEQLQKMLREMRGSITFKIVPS
Chain of Inadl_3, Q8NI35 (Q8NI35 359-469): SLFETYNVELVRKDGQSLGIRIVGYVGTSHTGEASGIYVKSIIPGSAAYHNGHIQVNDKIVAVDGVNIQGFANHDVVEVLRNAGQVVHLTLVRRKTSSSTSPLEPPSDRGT
Chain of FRMPD2_3, Q68DX3 (Q68DX3 1073-1166): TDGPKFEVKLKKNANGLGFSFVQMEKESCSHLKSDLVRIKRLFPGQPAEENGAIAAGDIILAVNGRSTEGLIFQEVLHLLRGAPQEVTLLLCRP
Chain of MAGI1_2, Q96QZ7 (Q96QZ7 456-580): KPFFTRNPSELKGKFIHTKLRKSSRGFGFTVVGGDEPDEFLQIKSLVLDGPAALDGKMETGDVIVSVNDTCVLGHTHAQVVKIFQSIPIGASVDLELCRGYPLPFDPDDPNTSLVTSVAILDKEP

| Binder | pKd [1] | pKd [2] | pKd [3] | pKd [4] | pKd [5] | pKd [6] | pKd [7] | pKd [8] | pKd [9] | pKd [10] | pKd [11] | pKd [12] | pKd [13] | pKd [14] | pKd [15] | pKd [16] | pKd [17] | pKd [18] | pKd [19] | pKd [20] | also measured |
| --- | --- | --- | --- | --- | --- | --- | --- | --- | --- | --- | --- | --- | --- | --- | --- | --- | --- | --- | --- | --- | --- |
| QFTLRHWLKV [SLC6A3, Q01959] | below the threshold | below the threshold | 3.87 | below the threshold | below the threshold | below the threshold | 3.47 | below the threshold | below the threshold | 4.46 | below the threshold | below the threshold | below the threshold | below the threshold | below the threshold | below the threshold | 3.9 | below the threshold | below the threshold | below the threshold | pKd [21]: 3.57; pKd [22]: below the threshold; pKd [23]: 3.76 |
| PASAKGPLGV [CLDN19, Q8N6F1] | below the threshold | below the threshold | below the threshold | below the threshold | below the threshold | below the threshold | below the threshold | below the threshold | below the threshold | below the threshold | below the threshold | below the threshold | below the threshold | below the threshold | below the threshold | below the threshold | below the threshold | below the threshold | below the threshold | below the threshold | pKd [21]: below the threshold; pKd [22]: below the threshold; pKd [23]: below the threshold |
| RELVMRVTTV [MARCHF4, Q9P2E8] | 4.82 | 3.77 | below the threshold | 4.03 | below the threshold | below the threshold | 3.97 | below the threshold | below the threshold | 3.76 | 4.81 | 4.46 | below the threshold | below the threshold | below the threshold | 4.95 | below the threshold | 4.75 | below the threshold | below the threshold | pKd [21]: below the threshold; pKd [22]: 3.6; pKd [23]: 5.48 |
| PAPGQHTTQI [STK16, O75716] | 3.51 | below the threshold | below the threshold | below the threshold | below the threshold | below the threshold | 4.57 | below the threshold | below the threshold | 3.97 | below the threshold | 3.91 | below the threshold | below the threshold | below the threshold | below the threshold | below the threshold | 4.12 | below the threshold | below the threshold | pKd [21]: below the threshold; pKd [22]: below the threshold; pKd [23]: 4.27 |
| DQPLEKSTKL [AKAP10, O43572] | below the threshold | 3.79 | below the threshold | below the threshold | below the threshold | below the threshold | 3.73 | 4.07 | below the threshold | 4.04 | below the threshold | 4.23 | below the threshold | below the threshold | below the threshold | below the threshold | below the threshold | below the threshold | below the threshold | below the threshold | pKd [21]: below the threshold; pKd [22]: below the threshold; pKd [23]: 5.08 |
| DSATVRTYSC [PPFIA1, Q13136] | below the threshold | below the threshold | below the threshold | below the threshold | below the threshold | below the threshold | 3.47 | 3.8 | below the threshold | 4.19 | below the threshold | 3.7 | below the threshold | below the threshold | below the threshold | below the threshold | 5.71 | below the threshold | below the threshold | below the threshold | pKd [21]: below the threshold; pKd [22]: below the threshold; pKd [23]: below the threshold |
